The supplement of paper PMC9112550, “Optimization of the antimicrobial peptide Bac7 by deep mutational scanning” (BMC Biology, 2022)

System: Escherichia coli TOP10
Experiment: shrunken log2 fold change of peptide-encoding DNA abundance (4.5 h post-induction vs induction); higher = less antimicrobial activity (less host growth inhibition)
Settings: time post-induction: 4.5 h; library: site-saturation at positions 5, 18, 19, 20
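Note: peptides expressed intracellularly from a pBAD plasmid library in pooled LB shake-flask culture, induced with 0.3% L-arabinose, DNA abundance read by NGS, three biological replicates, DESeq2 with apeglm shrinkage.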

Sequence: RRIRARPPRLPRPRPRPIGVPRP
- shrunken log2 fold change: 0.892

Sequence: RRIRARPPRLPRPRPRPIGYPRP
- shrunken log2 fold change: -0.0969

Sequence: RRIRARPPRLPRPRPRPIHCPRP
- shrunken log2 fold change: -0.189

Sequence: RRIRARPPRLPRPRPRPIHMPRP
- shrunken log2 fold change: 0.0203

Sequence: RRIRARPPRLPRPRPRPIHPPRP
- shrunken log2 fold change: 0.0444

Sequence: RRIRARPPRLPRPRPRPIMCPRP
- shrunken log2 fold change: -0.0139

Sequence: RRIRARPPRLPRPRPRPIMGPRP
- shrunken log2 fold change: 0.0143

Sequence: RRIRARPPRLPRPRPRPINLPRP
- shrunken log2 fold change: -0.376

Sequence: RRIRARPPRLPRPRPRPINNPRP
- shrunken log2 fold change: -0.441

Sequence: RRIRARPPRLPRPRPRPIPFPRP
- shrunken log2 fold change: 0.00602

Sequence: RRIRARPPRLPRPRPRPIQCPRP
- shrunken log2 fold change: 0.00559

Sequence: RRIRARPPRLPRPRPRPIRSPRP
- shrunken log2 fold change: -0.129

Sequence: RRIRARPPRLPRPRPRPISCPRP
- shrunken log2 fold change: 0.0406

Sequence: RRIRARPPRLPRPRPRPISDPRP
- shrunken log2 fold change: 0.266

Sequence: RRIRARPPRLPRPRPRPISQPRP
- shrunken log2 fold change: 0.177

Sequence: RRIRARPPRLPRPRPRPITVPRP
- shrunken log2 fold change: -0.201

Sequence: RRIRARPPRLPRPRPRPIVMPRP
- shrunken log2 fold change: -0.0831

Sequence: RRIRARPPRLPRPRPRPKAYPRP
- shrunken log2 fold change: 0.088

Sequence: RRIRARPPRLPRPRPRPKCMPRP
- shrunken log2 fold change: 0.0351

Sequence: RRIRARPPRLPRPRPRPKCPPRP
- shrunken log2 fold change: -0.0505

Sequence: RRIRARPPRLPRPRPRPKDGPRP
- shrunken log2 fold change: 0.298

Sequence: RRIRARPPRLPRPRPRPKDSPRP
- shrunken log2 fold change: 0.181

Sequence: RRIRARPPRLPRPRPRPKEKPRP
- shrunken log2 fold change: 0.0797

Sequence: RRIRARPPRLPRPRPRPKEYPRP
- shrunken log2 fold change: -0.15

Sequence: RRIRARPPRLPRPRPRPKFTPRP
- shrunken log2 fold change: 0.00836

Sequence: RRIRARPPRLPRPRPRPKHLPRP
- shrunken log2 fold change: 0.417

Sequence: RRIRARPPRLPRPRPRPKHNPRP
- shrunken log2 fold change: 0.114

Sequence: RRIRARPPRLPRPRPRPKHPPRP
- shrunken log2 fold change: 0.199

Sequence: RRIRARPPRLPRPRPRPKIGPRP
- shrunken log2 fold change: 0.458

Sequence: RRIRARPPRLPRPRPRPKIRPRP
- shrunken log2 fold change: 0.379

Sequence: RRIRARPPRLPRPRPRPKITPRP
- shrunken log2 fold change: -0.0367

Sequence: RRIRARPPRLPRPRPRPKKLPRP
- shrunken log2 fold change: 0.223

Sequence: RRIRARPPRLPRPRPRPKNAPRP
- shrunken log2 fold change: 0.323

Sequence: RRIRARPPRLPRPRPRPKNCPRP
- shrunken log2 fold change: -0.245

Sequence: RRIRARPPRLPRPRPRPKPLPRP
- shrunken log2 fold change: 0.455

Sequence: RRIRARPPRLPRPRPRPKPSPRP
- shrunken log2 fold change: 0.524

Sequence: RRIRARPPRLPRPRPRPKPTPRP
- shrunken log2 fold change: 0.744

Sequence: RRIRARPPRLPRPRPRPKPWPRP
- shrunken log2 fold change: 0.823

Sequence: RRIRARPPRLPRPRPRPKQEPRP
- shrunken log2 fold change: 0.254

Sequence: RRIRARPPRLPRPRPRPKQHPRP
- shrunken log2 fold change: 0.312

Sequence: RRIRARPPRLPRPRPRPKQSPRP
- shrunken log2 fold change: 0.608

Sequence: RRIRARPPRLPRPRPRPKQTPRP
- shrunken log2 fold change: 0.453

Sequence: RRIRARPPRLPRPRPRPKSTPRP
- shrunken log2 fold change: 0.28

Sequence: RRIRARPPRLPRPRPRPKTWPRP
- shrunken log2 fold change: 0.261

Sequence: RRIRARPPRLPRPRPRPKVGPRP
- shrunken log2 fold change: 0.284

Sequence: RRIRARPPRLPRPRPRPKVLPRP
- shrunken log2 fold change: 0.269

Sequence: RRIRARPPRLPRPRPRPKWIPRP
- shrunken log2 fold change: 0.0218

Sequence: RRIRARPPRLPRPRPRPKWTPRP
- shrunken log2 fold change: -0.00127

Sequence: RRIRARPPRLPRPRPRPKYGPRP
- shrunken log2 fold change: -0.0411

Sequence: RRIRARPPRLPRPRPRPLAAPRP
- shrunken log2 fold change: 0.942

Sequence: RRIRARPPRLPRPRPRPLAEPRP
- shrunken log2 fold change: 0.976

Sequence: RRIRARPPRLPRPRPRPLAIPRP
- shrunken log2 fold change: 0.397

Sequence: RRIRARPPRLPRPRPRPLAWPRP
- shrunken log2 fold change: 0.721

Sequence: RRIRARPPRLPRPRPRPLCFPRP
- shrunken log2 fold change: 0.195

Sequence: RRIRARPPRLPRPRPRPLCKPRP
- shrunken log2 fold change: 0.326

Sequence: RRIRARPPRLPRPRPRPLCTPRP
- shrunken log2 fold change: 0.223

Sequence: RRIRARPPRLPRPRPRPLDLPRP
- shrunken log2 fold change: 0.227

Sequence: RRIRARPPRLPRPRPRPLDQPRP
- shrunken log2 fold change: 1.44

Sequence: RRIRARPPRLPRPRPRPLERPRP
- shrunken log2 fold change: -0.0328

Sequence: RRIRARPPRLPRPRPRPLFPPRP
- shrunken log2 fold change: 0.148

Sequence: RRIRARPPRLPRPRPRPLGIPRP
- shrunken log2 fold change: -0.12

Sequence: RRIRARPPRLPRPRPRPLGNPRP
- shrunken log2 fold change: 0.0331

Sequence: RRIRARPPRLPRPRPRPLGQPRP
- shrunken log2 fold change: 0.432

Sequence: RRIRARPPRLPRPRPRPLGWPRP
- shrunken log2 fold change: 0.951

Sequence: RRIRARPPRLPRPRPRPLHHPRP
- shrunken log2 fold change: -0.0724

Sequence: RRIRARPPRLPRPRPRPLHNPRP
- shrunken log2 fold change: 0.00865

Sequence: RRIRARPPRLPRPRPRPLLMPRP
- shrunken log2 fold change: 0.384

Sequence: RRIRARPPRLPRPRPRPLMGPRP
- shrunken log2 fold change: 0.489

Sequence: RRIRARPPRLPRPRPRPLNLPRP
- shrunken log2 fold change: 0.0866

Sequence: RRIRARPPRLPRPRPRPLPWPRP
- shrunken log2 fold change: 0.51

Sequence: RRIRARPPRLPRPRPRPLPYPRP
- shrunken log2 fold change: 0.0356

Sequence: RRIRARPPRLPRPRPRPLQQPRP
- shrunken log2 fold change: 0.752

Sequence: RRIRARPPRLPRPRPRPLREPRP
- shrunken log2 fold change: 1.16

Sequence: RRIRARPPRLPRPRPRPLRPPRP
- shrunken log2 fold change: 1.08

Sequence: RRIRARPPRLPRPRPRPLTCPRP
- shrunken log2 fold change: -0.248

Sequence: RRIRARPPRLPRPRPRPLVVPRP
- shrunken log2 fold change: 0.194

Sequence: RRIRARPPRLPRPRPRPLWFPRP
- shrunken log2 fold change: 0.145

Sequence: RRIRARPPRLPRPRPRPLWIPRP
- shrunken log2 fold change: -0.0129

Sequence: RRIRARPPRLPRPRPRPMERPRP
- shrunken log2 fold change: 0.0157

Sequence: RRIRARPPRLPRPRPRPMHFPRP
- shrunken log2 fold change: 0.122

Sequence: RRIRARPPRLPRPRPRPMHKPRP
- shrunken log2 fold change: 0.221

Sequence: RRIRARPPRLPRPRPRPMIDPRP
- shrunken log2 fold change: 0.535

Sequence: RRIRARPPRLPRPRPRPMKAPRP
- shrunken log2 fold change: 0.0595

Sequence: RRIRARPPRLPRPRPRPMKSPRP
- shrunken log2 fold change: 0.186

Sequence: RRIRARPPRLPRPRPRPMLVPRP
- shrunken log2 fold change: 0.291

Sequence: RRIRARPPRLPRPRPRPMMRPRP
- shrunken log2 fold change: 1.22

Sequence: RRIRARPPRLPRPRPRPMNNPRP
- shrunken log2 fold change: -0.186

Sequence: RRIRARPPRLPRPRPRPMPAPRP
- shrunken log2 fold change: 0.722

Sequence: RRIRARPPRLPRPRPRPMPCPRP
- shrunken log2 fold change: 0.535

Sequence: RRIRARPPRLPRPRPRPMQRPRP
- shrunken log2 fold change: 0.383

Sequence: RRIRARPPRLPRPRPRPMQTPRP
- shrunken log2 fold change: 0.114

Sequence: RRIRARPPRLPRPRPRPMSSPRP
- shrunken log2 fold change: 0.0476

Sequence: RRIRARPPRLPRPRPRPMTCPRP
- shrunken log2 fold change: -0.29

Sequence: RRIRARPPRLPRPRPRPMTSPRP
- shrunken log2 fold change: 0.237

Sequence: RRIRARPPRLPRPRPRPMTYPRP
- shrunken log2 fold change: -0.086

Sequence: RRIRARPPRLPRPRPRPNAHPRP
- shrunken log2 fold change: 0.437

Sequence: RRIRARPPRLPRPRPRPNATPRP
- shrunken log2 fold change: 1.97

Sequence: RRIRARPPRLPRPRPRPNDRPRP
- shrunken log2 fold change: -0.0519

Sequence: RRIRARPPRLPRPRPRPNEFPRP
- shrunken log2 fold change: -0.362

Sequence: RRIRARPPRLPRPRPRPNEMPRP
- shrunken log2 fold change: -0.0653

Sequence: RRIRARPPRLPRPRPRPNFDPRP
- shrunken log2 fold change: 0.281

Sequence: RRIRARPPRLPRPRPRPNFHPRP
- shrunken log2 fold change: 0.0254

Sequence: RRIRARPPRLPRPRPRPNFVPRP
- shrunken log2 fold change: -0.122

Sequence: RRIRARPPRLPRPRPRPNGEPRP
- shrunken log2 fold change: 0.189

Sequence: RRIRARPPRLPRPRPRPNGFPRP
- shrunken log2 fold change: 0.113

Sequence: RRIRARPPRLPRPRPRPNGPPRP
- shrunken log2 fold change: 0.149

Sequence: RRIRARPPRLPRPRPRPNHTPRP
- shrunken log2 fold change: -0.605

Sequence: RRIRARPPRLPRPRPRPNHWPRP
- shrunken log2 fold change: 0.0522

Sequence: RRIRARPPRLPRPRPRPNKTPRP
- shrunken log2 fold change: -0.105

Sequence: RRIRARPPRLPRPRPRPNLMPRP
- shrunken log2 fold change: -0.0139

Sequence: RRIRARPPRLPRPRPRPNLWPRP
- shrunken log2 fold change: 0.467

Sequence: RRIRARPPRLPRPRPRPNMHPRP
- shrunken log2 fold change: 0.0638

Sequence: RRIRARPPRLPRPRPRPNMNPRP
- shrunken log2 fold change: -0.212

Sequence: RRIRARPPRLPRPRPRPNNKPRP
- shrunken log2 fold change: -0.29

Sequence: RRIRARPPRLPRPRPRPNQEPRP
- shrunken log2 fold change: -0.000902

Sequence: RRIRARPPRLPRPRPRPNQGPRP
- shrunken log2 fold change: 0.392

Sequence: RRIRARPPRLPRPRPRPNRCPRP
- shrunken log2 fold change: 0.0646

Sequence: RRIRARPPRLPRPRPRPNRMPRP
- shrunken log2 fold change: 0.0574

Sequence: RRIRARPPRLPRPRPRPNRQPRP
- shrunken log2 fold change: 0.257

Sequence: RRIRARPPRLPRPRPRPNSQPRP
- shrunken log2 fold change: 0.0062

Sequence: RRIRARPPRLPRPRPRPNTGPRP
- shrunken log2 fold change: -0.0394

Sequence: RRIRARPPRLPRPRPRPNTNPRP
- shrunken log2 fold change: -0.0214

Sequence: RRIRARPPRLPRPRPRPNVDPRP
- shrunken log2 fold change: 0.0662

Sequence: RRIRARPPRLPRPRPRPNWCPRP
- shrunken log2 fold change: 0.206

Sequence: RRIRARPPRLPRPRPRPPAEPRP
- shrunken log2 fold change: 1.15

Sequence: RRIRARPPRLPRPRPRPPATPRP
- shrunken log2 fold change: 1.63

Sequence: RRIRARPPRLPRPRPRPPAWPRP
- shrunken log2 fold change: 0.621

Sequence: RRIRARPPRLPRPRPRPPDRPRP
- shrunken log2 fold change: 0.853

Sequence: RRIRARPPRLPRPRPRPPFDPRP
- shrunken log2 fold change: 0.922

Sequence: RRIRARPPRLPRPRPRPPGHPRP
- shrunken log2 fold change: 0.779

Sequence: RRIRARPPRLPRPRPRPPGVPRP
- shrunken log2 fold change: 0.158

Sequence: RRIRARPPRLPRPRPRPPGYPRP
- shrunken log2 fold change: 0.365

Sequence: RRIRARPPRLPRPRPRPPHFPRP
- shrunken log2 fold change: 1.41

Sequence: RRIRARPPRLPRPRPRPPHQPRP
- shrunken log2 fold change: 0.952

Sequence: RRIRARPPRLPRPRPRPPMIPRP
- shrunken log2 fold change: -0.172

Sequence: RRIRARPPRLPRPRPRPPNHPRP
- shrunken log2 fold change: 0.305

Sequence: RRIRARPPRLPRPRPRPPPHPRP
- shrunken log2 fold change: 1.03

Sequence: RRIRARPPRLPRPRPRPPPLPRP
- shrunken log2 fold change: 1.84

Sequence: RRIRARPPRLPRPRPRPPPTPRP
- shrunken log2 fold change: 1.13

Sequence: RRIRARPPRLPRPRPRPPPWPRP
- shrunken log2 fold change: 1.03

Sequence: RRIRARPPRLPRPRPRPPQHPRP
- shrunken log2 fold change: 0.655

Sequence: RRIRARPPRLPRPRPRPPTVPRP
- shrunken log2 fold change: 0.468

Sequence: RRIRARPPRLPRPRPRPPVAPRP
- shrunken log2 fold change: 0.77

Sequence: RRIRARPPRLPRPRPRPPVCPRP
- shrunken log2 fold change: 0.276

Sequence: RRIRARPPRLPRPRPRPPWDPRP
- shrunken log2 fold change: 0.72

Sequence: RRIRARPPRLPRPRPRPPWNPRP
- shrunken log2 fold change: 0.427

Sequence: RRIRARPPRLPRPRPRPPWSPRP
- shrunken log2 fold change: 0.585

Sequence: RRIRARPPRLPRPRPRPPYCPRP
- shrunken log2 fold change: 0.276

Sequence: RRIRARPPRLPRPRPRPQANPRP
- shrunken log2 fold change: 0.304

Sequence: RRIRARPPRLPRPRPRPQCEPRP
- shrunken log2 fold change: 0.724
